Data: article PMC8298264, “Function of cofactor Akirin2 in the regulation of gene expression in model human neutrophil-like HL60 cells” (Bioscience Reports, 2021)

System: human HL60 cells
Experiment: SWATH-MS proteomics, differential protein representation, akirin2 KO vs WT HL60 cells
Format: cell-based
Conditions: sheet "Under-represented in KO"
Method in brief: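 Read-out is label-free SWATH-MS protein area, globally normalized to total detected-protein area, with identifications held at 1% FDR against a library from information-dependent acquisition.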

| Molecule | Fold Change (akirin2 KO vs WT HL60 cells) | Log (Fold Change) (akirin2 KO vs WT HL60 cells) | Fold Change (KO vs WT HL60 cells) | Log (Fold Change) (KO vs WT HL60 cells) |
| --- | --- | --- | --- | --- |
| sp¦Q9UQE7¦SMC3_HUMAN (protein, UniProt Q9UQE7 1-1217, looked up) Structural maintenance of …: MYIKQVIIQGFRSYRDQTIVDPFSSKHNVIVGRNGSGKSNFFYAIQFVLSDEFSHLRPEQRLALLHEGTGPRVISAFVEIIFDNSDNRLPIDKEEVSLRRVIGAKKDQYFLDKKMVTKNDVMNLLESAGFSRSNPYYIVKQGKINQMATAPDSQRLKLLREVAGTRVYDERKEESISLMKETEGKREKINELLKYIEERLHTLEEEKEELAQYQKWDKMRRALEYTIYNQELNETRAKLDELSAKRETSGEKSRQLRDAQQDARDKMEDIERQVRELKTKISAMKEEKEQLSAERQEQIKQRTKLELKAKDLQDELAGNSEQRKRLLKERQKLLEKIEEKQKELAETEPKFNSVKEKEERGIARLAQATQERTDLYAKQGRGSQFTSKEERDKWIKKELKSLDQAINDKKRQIAAIHKDLEDTEANKEKNLEQYNKLDQDLNEVKARVEELDRKYYEVKNKKDELQSERNYLWREENAEQQALAAKREDLEKKQQLLRAATGKAILNGIDSINKVLDHFRRKGINQHVQNGYHGIVMNNFECEPAFYTCVEVTAGNRLFYHIVDSDEVSTKILMEFNKMNLPGEVTFLPLNKLDVRDTAYPETNDAIPMISKLRYNPRFDKAFKHVFGKTLICRSMEVSTQLARAFTMDCITLEGDQVSHRGALTGGYYDTRKSRLELQKDVRKAEEELGELEAKLNENLRRNIERINNEIDQLMNQMQQIETQQRKFKASRDSILSEMKMLKEKRQQSEKTFMPKQRSLQSLEASLHAMESTRESLKAELGTDLLSQLSLEDQKRVDALNDEIRQLQQENRQLLNERIKLEGIITRVETYLNENLRKRLDQVEQELNELRETEGGTVLTATTSELEAINKRVKDTMARSEDLDNSIDKTEAGIKELQKSMERWKNMEKEHMDAINHDTKELEKMTNRQGMLLKKKEECMKKIRELGSLPQEAFEKYQTLSLKQLFRKLEQCNTELKKYSHVNKKALDQFVNFSEQKEKLIKRQEELDRGYKSIMELMNVLELRKYEAIQLTFKQVSKNFSEVFQKLVPGGKATLVMKKGDVEGSQSQDEGEGSGESERGSGSQSSVPSVDQFTGVGIRVSFTGKQGEMREMQQLSGGQKSLVALALIFAIQKCDPAPFYLFDEIDQALDAQHRKAVSDMIMELAVHAQFITTTFRPELLESADKFYGVKFRNKVSHIDVITAEMAKDFVEDDTTHG | 0.4375 | -0.359 |  |  |
| RRRRRsp¦Q5VW38¦GP107_HUMAN (protein, UniProt Q5VW38 40-600, looked up) Protein GPR107: RVHHLALKDDVRHKVHLNTFGFFKDGYMVVNVSSLSLNEPEDKDVTIGFSLDRTKNDGFSSYLDEDVNYCILKKQSVSVTLLILDISRSEVRVKSPPEAGTQLPKIIFSRDEKVLGQSQEPNVNPASAGNQTQKTQDGGKSKRSTVDSKAMGEKSFSVHNNGGAVSFQFFFNISTDDQEGLYSLYFHKCLGKELPSDKFTFSLDIEITEKNPDSYLSAGEIPLPKLYISMAFFFFLSGTIWIHILRKRRNDVFKIHWLMAALPFTKSLSLVFHAIDYHYISSQGFPIEGWAVVYYITHLLKGALLFITIALIGTGWAFIKHILSDKDKKIFMIVIPLQVLANVAYIIIESTEEGTTEYGLWKDSLFLVDLLCCGAILFPVVWSIRHLQEASATDGKGDSMGPLQQRANLRAGSRIESHHFAQADLELLASSCPPASVSQRAGITAAINLAKLKLFRHYYVLIVCYIYFTRIIAFLLKLAVPFQWKWLYQLLDETATLVFFVLTGYKFRPASDNPYLQLSQEEEDLEMESVVTTSGVMESMKKVKKVTNGSVEPQGEWEGAV | 0.4419 | -0.3547 |  |  |
| sp¦Q9BXW7¦HDHD5_HUMAN (protein, UniProt Q9BXW7 24-423, looked up) Haloacid dehalogenase-like …: AAGLQGRPARRCYAVGPAQSPPTFGFLLDIDGVLVRGHRVIPAALKAFRRLVNSQGQLRVPVVFVTNAGNILQHSKAQELSALLGCEVDADQVILSHSPMKLFSEYHEKRMLVSGQGPVMENAQGLGFRNVVTVDELRMAFPLLDMVDLERRLKTTPLPRNDFPRIEGVLLLGEPVRWETSLQLIMDVLLSNGSPGAGLATPPYPHLPVLASNMDLLWMAEAKMPRFGHGTFLLCLETIYQKVTGKELRYEGLMGKPSILTYQYAEDLIRRQAERRGWAAPIRKLYAVGDNPMSDVYGANLFHQYLQKATHDGAPELGAGGTRQQQPSASQSCISILVCTGVYNPRNPQSTEPVLGGGEPPFHGHRDLCFSPGLMEASHVVNDVNEAVQLVFRKEGWALE |  |  | 0.4469 | -0.3498 |
| sp¦O43719¦HTSF1_HUMAN (protein, UniProt O43719 2-755, looked up) 17S U2 SnRNP complex …: SGTNLDGNDEFDEQLRMQELYGDGKDGDTQTDAGGEPDSLGQQPTDTPYEWDLDKKAWFPKITEDFIATYQANYGFSNDGASSSTANVEDVHARTAEEPPQEKAPEPTDARKKGEKRKAESGWFHVEEDRNTNVYVSGLPPDITVDEFIQLMSKFGIIMRDPQTEEFKVKLYKDNQGNLKGDGLCCYLKRESVELALKLLDEDEIRGYKLHVEVAKFQLKGEYDASKKKKKCKDYKKKLSMQQKQLDWRPERRAGPSRMRHERVVIIKNMFHPMDFEDDPLVLNEIREDLRVECSKFGQIRKLLLFDRHPDGVASVSFRDPEEADYCIQTLDGRWFGGRQITAQAWDGTTDYQVEETSREREERLRGWEAFLNAPEANRGLRRSDSVSASERAGPSRARHFSEHPSTSKMNAQETATGMAFEEPIDEKKFEKTEDGGEFEEGASENNAKESSPEKEAEEGCPEKESEEGCPKRGFEGSCSQKESEEGNPVRGSEEDSPKKESKKKTLKNDCEENGLAKESEDDLNKESEEEVGPTKESEEDDSEKESDEDCSEKQSEDGSEREFEENGLEKDLDEEGSEKELHENVLDKELEENDSENSEFEDDGSEKVLDEEGSEREFDEDSDEKEEEEDTYEKVFDDESDEKEDEEYADEKGLEAADKKAEEGDADEKLFEESDDKEDEDADGKEVEDADEKLFEDDDSNEKLFDEEEDSSEKLFDDSDERGTLGGFGSVEEGPLSTGSSFILSSDDDDDDI | 0.1732 | -0.7615 |  |  |
| sp¦Q99442¦SEC62_HUMAN (protein, UniProt Q99442 1-399, looked up) Translocation protein SEC62: MAERRRHKKRIQEVGEPSKEEKAVAKYLRFNCPTKSTNMMGHRVDYFIASKAVDCLLDSKWAKAKKGEEALFTTRESVVDYCNRLLKKQFFHRALKVMKMKYDKDIKKEKDKGKAESGKEEDKKSKKENIKDEKTKKEKEKKKDGEKEESKKEETPGTPKKKETKKKFKLEPHDDQVFLDGNEVYVWIYDPVHFKTFVMGLILVIAVIAATLFPLWPAEMRVGVYYLSVGAGCFVASILLLAVARCILFLIIWLITGGRHHFWFLPNLTADVGFIDSFRPLYTHEYKGPKADLKKDEKSETKKQQKSDSEEKSDSEKKEDEEGKVGPGNHGTEGSGGERHSDTDSDRREDDRSQHSSGNGNDFEMITKEELEQQTDGDCEEDEEEENDGETPKSSHEKS | 0.4401 | -0.3564 |  |  |
